Columns and labels:
[1] = target: S. cerevisiae RNA polymerase II (Pol II), stalled elongation complex on DNA with nascent RNA (S. cerevisiae) (UniProt P16370)
[2] = target: S. cerevisiae RNA polymerase II (Pol II), stalled elongation complex on DNA with nascent RNA (S. cerevisiae) (UniProt P16370); remark: listed apart in the source

UniProt P16370, sequence (P16370 whole entry, looked up, one chain of several): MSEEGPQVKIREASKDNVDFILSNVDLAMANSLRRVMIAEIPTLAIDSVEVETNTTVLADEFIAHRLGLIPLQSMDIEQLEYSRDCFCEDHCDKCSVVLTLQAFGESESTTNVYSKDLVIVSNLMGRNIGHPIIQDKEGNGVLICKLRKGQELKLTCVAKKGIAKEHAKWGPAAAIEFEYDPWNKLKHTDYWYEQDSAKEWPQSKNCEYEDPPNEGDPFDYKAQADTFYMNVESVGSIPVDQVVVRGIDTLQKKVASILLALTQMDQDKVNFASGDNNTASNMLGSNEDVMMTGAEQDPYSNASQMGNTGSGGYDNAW

Km of formation of the intermediate (Sen1·sEC)'; Michaelis-Menten fit of t1, the lifetime before the intermediate forms [1]: 0.096 nM
Km of removal of stalled Pol II by Sen1 HD (10-100 pM); Michaelis-Menten fit of the mean total lifetime (t total) of the transcription bubble; magnetic-trap DNA supercoiling assay, 1 mM ATP, 28 °C [1]: 70 pM
Km of removal of stalled Pol II by Sen1 HD; Michaelis-Menten fit of t total, corrected for the stalling rate ks [1]: 0.083 nM
Km of removal of stalled Pol II by Sen1 HD; single-molecule Michaelis-Menten global fit of t total distributions (from k1, k-1 and kCAT) [1]: 0.041 nM
k1, rate of binding of Sen1 HD to the stalled elongation complex; single-molecule Michaelis-Menten global fit of t total distributions, kCAT constrained [1]: 2.18e+09 M⁻¹ s⁻¹
k−1, rate of unbinding of Sen1 HD from the stalled elongation complex; single-molecule Michaelis-Menten global fit of t total distributions, kCAT constrained [1]: 0.0725 s⁻¹
k−1, rate of unbinding of Sen1 HD from the stalled elongation complex; the same fit [2]: 0.0719 s⁻¹
B1: Sen1 helicase domain (Sen1 HD, 1095–1904) (domain or fragment)
chain: AELAKQELEHMRKRLNVDMNPLYEIILQWDYTRNSEYPDDEPIGNYSDVKDFFNSPADYQKVMKPLLLLESWQGLCSSRDREDYKPFSIIVGNRTAVSDFYDVYASVAKQVIQDCGISESDLIVMAYLPDFRPDKRLSSDDFKKAQHTCLAKVRTLKNTKGGNVDVTLRIHRNHSFSKFLTLRSEIYCVKVMQMTTIEREYSTLEGLEYYDLVGQILQAKPSPPVNVDAAEIETVKKSYKLNTSQAEAIVNSVSKEGFSLIQGPPGTGKTKTILGIIGYFLSTKNASSSNVIKVPLEKNSSNTEQLLKKQKILICAPSNAAVDEICLRLKSGVYDKQGHQFKPQLVRVGRSDVVNVAIKDLTLEELVDKRIGERNYEIRTDPELERKFNNAVTKRRELRGKLDSESGNPESPMSTEDISKLQLKIRELSKIINELGRDRDEMREKNSVNYRNRDLDRRNAQAHILAVSDIICSTLSGSAHDVLATMGIKFDTVIIDEACQCTELSSIIPLRYGGKRCIMVGDPNQLPPTVLSGAASNFKYNQSLFVRMEKNSSPYLLDVQYRMHPSISKFPSSEFYQGRLKDGPGMDILNKRPWHQLEPLAPYKFFDIISGRQEQNAKTMSYTNMEEIRVAIELVDYLFRKFDNKIDFTGKIGIISPYREQMQKMRKEFARYFGGMINKSIDFNTIDGFQGQEKEIILISCVRADDTKSSVGFLKDFRRMNVALTRAKTSIWVLGHQRSLAKSKLWRDLIEDAKDRSCLAYACSGFLDPRNNRAQSILRKFNVPVPSEQEDDYKLPMEYITQGPDEVKSN
